Results reported in patent publication US20230055566A1.
Positions count from the first letter of the chain named.

B1: Ab 21c (antibody, V domains shown)
VH: EVQLHQSGTVLARPGASVKMSCKTSGYTFTNYWMHWIKQRPGQGLEWIGAIYPENGDINYNQKFKGKAKLTAVTSASTAYMDLSSLTNEDSAVYYCTSRGDYWGQGTTLTVSS
VL: QIVLTQSPAIMSASPGEKVTMTCSASSGLSYMSWYQQKPGSSPRLLIYDTSNLASGVPVRFSGSGSGTSYSLTISRMEAEDAATYYCQQWSSYPYTFGGGTKLEIK
B2: Ab hu21-26 (antibody, human IgG1, V domains shown)
VH: EVQLVQSGAEVKKPGASVKVSCKASGYTFTNYWMHWVRQAPGQGLEWMGAIYPENRDINYNQKFKGRVTLTRDTSISTAYMELSRLRSDDTAVYYCTSRGDYWGQGTTVTVSS
VL: AIQLTQSPSSLSASVGDRVTITCSASSGLSYMSWYQQKPGKAPKLLIYDTSNLASGVPSRFSGSGSGTDFTLTISSLQPEDFATYYCQQWSSYPYTFGQGTKLEIK
B3: FPA144 (antibody, INN chains, looked up, V domains shown)
VH: QVQLVQSGAEVKKPGSSVKVSCKASGYIFTTYNVHWVRQAPGQGLEWIGSIYPDNGDTSYNQNFKGRATITADKSTSTAYMELSSLRSEDTAVYYCARGDFAYWGQGTLVTVSS
VL: DIQMTQSPSSLSASVGDRVTITCKASQGVSNDVAWYQQKPGKAPKLLIYSASYRYTGVPSRFSGSGSGTDFTFTISSLQPEDIATYYCQQHSTTPYTFGQGTKLEIK
B4: Ab 21 (antibody, V domains shown)
VH: B1 VH
VL: B1 VL
B5: Ab hu21-21 (antibody, V domains shown)
VH: B2 VH with R56G
VL: B2 VL

How the values were obtained:
[1] = biological target: human FGFR2b (beta)-Fc (human) (UniProt P21802); assay: SPR (Biacore), hFGFR2b-Fc immobilized on CM5 chip, antibody injected at 0-200 nM
[2] = biological target: recombinant human FGFR2b-Fc (murine Fc) (human) (UniProt P21802); assay: ELISA, plate coated with human FGFR2b-Fc, anti-human IgG HRP
[3] = biological target: endogenous FGFR2b on the cell membrane of human gastric cancer cells (KATOIII, SNU16) (human) (UniProt P21802); assay: flow cytometry on FGFR2b expressing KATOIII cells
[4] = biological target: human FGFR2b on engineered Ba/F3 cells (Ba/F3-FGFR2b) (human), P21802; assay: cell-based or functional assay
[5] = biological target: recombinant human FGFR1b-Fc (human) (UniProt P11362); assay: SPR (Biacore), hFGFR1b-Fc immobilized on CM5 chip, antibody injected at 0-200 nM
[6] = biological target: recombinant human FGFR1b-Fc (human) (UniProt P11362); assay: SPR (Biacore T200), hFGFR1b-Fc amine-coupled on CM5 chip, antibody as analyte
[7] = biological target: human FGFR2b (beta)-Fc (human) (UniProt P21802); assay: ELISA, plate coated with HuFGFR2b

Chain of recombinant human FGFR1b-Fc (human) (P11362 other isoform, or with tags, fused parts or gaps): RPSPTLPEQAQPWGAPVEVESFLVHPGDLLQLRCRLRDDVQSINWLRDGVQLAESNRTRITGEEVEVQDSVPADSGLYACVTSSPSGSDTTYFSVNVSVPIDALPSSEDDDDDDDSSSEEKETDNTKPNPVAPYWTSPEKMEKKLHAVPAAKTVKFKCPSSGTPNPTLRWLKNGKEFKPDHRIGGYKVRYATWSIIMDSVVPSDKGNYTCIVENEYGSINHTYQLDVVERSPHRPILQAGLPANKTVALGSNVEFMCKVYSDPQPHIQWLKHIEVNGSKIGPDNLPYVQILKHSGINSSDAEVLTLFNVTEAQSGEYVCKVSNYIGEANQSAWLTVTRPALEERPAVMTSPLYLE
Chain of human FGFR2b on engineered Ba/F3 cells (Ba/F3-FGFR2b) (human), P21802 (P21802 22-821, change not shown): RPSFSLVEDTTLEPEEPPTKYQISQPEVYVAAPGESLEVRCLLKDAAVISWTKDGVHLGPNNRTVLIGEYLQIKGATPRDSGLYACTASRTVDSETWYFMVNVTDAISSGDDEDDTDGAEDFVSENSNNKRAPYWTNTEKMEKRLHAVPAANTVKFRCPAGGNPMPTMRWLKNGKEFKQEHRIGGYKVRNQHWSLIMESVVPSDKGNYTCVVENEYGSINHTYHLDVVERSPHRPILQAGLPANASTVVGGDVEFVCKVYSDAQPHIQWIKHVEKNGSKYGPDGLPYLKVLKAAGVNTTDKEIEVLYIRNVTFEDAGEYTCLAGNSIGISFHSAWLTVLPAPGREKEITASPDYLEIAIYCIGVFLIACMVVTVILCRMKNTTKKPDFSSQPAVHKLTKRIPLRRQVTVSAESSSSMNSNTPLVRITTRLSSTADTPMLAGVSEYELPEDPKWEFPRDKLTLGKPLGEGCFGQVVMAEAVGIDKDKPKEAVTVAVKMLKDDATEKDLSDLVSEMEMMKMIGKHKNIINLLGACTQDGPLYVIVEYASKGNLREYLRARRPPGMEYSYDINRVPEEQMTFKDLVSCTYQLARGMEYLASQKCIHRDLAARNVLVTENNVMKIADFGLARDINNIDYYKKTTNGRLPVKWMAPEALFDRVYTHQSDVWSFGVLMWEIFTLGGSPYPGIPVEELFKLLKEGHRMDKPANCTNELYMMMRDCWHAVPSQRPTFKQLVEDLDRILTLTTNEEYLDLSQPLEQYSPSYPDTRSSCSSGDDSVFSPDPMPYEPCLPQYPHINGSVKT

Row | Binder | Kd [1] [nM] | koff [1] [s⁻¹] | kon [1] [M⁻¹ s⁻¹] | further results
1 | B1 | 0.269 | 2.46e-05 | 91300 | EC50 (read off the curve) [2]: 400 pM; EC50 [3]: 8 nM; GI50, inhibition of FGF7-induced BaF3 cell proliferation (MTS, 72 hours) [4]: 10 nM
2 | B2 | 0.482 | 5.58e-05 | 116000 | 
3 | B3 |  |  |  | koff [5]: 0.00746 s⁻¹; kon [5]: 33200 M⁻¹ s⁻¹; Kd [6]: 225 nM
4 | B4 |  |  |  | EC50 (read off the curve) [7]: 400 pM
5 | B5 | 0.25 | 2.45e-05 | 98000 | 
